We go through 21 molecules from patent publication US20250340652A1 (CHENGDU DI AO PHARMACEUTICAL GROUP, published 2025).

B1: B83 (antibody, V domains shown)
VH: EVQLLESGGGLVQPGGSLRLSCAASGFTFSSYAMSWVRQAPGKGLEWVSAISGSGGRTYYADSVKGRFTISRDNSKNTLYLQMNSLRAEDTAVYYCARVLQYSGTDDLDVWGRGTLVTVSS
VL: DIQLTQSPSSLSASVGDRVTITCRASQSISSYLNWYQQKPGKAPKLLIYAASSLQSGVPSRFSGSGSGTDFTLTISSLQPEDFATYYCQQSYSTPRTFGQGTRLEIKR
notes: also called P59389
B2: B123 (antibody, human IgG4, kappa, V domains shown)
VH: QVQLQQWGAGLLKPSQTLSLTCTVSGGSISSGGYYWSWIRQHPGKGLEWIGYIYYSGSTYYNPSLKSRVTISVDTSKNQFSLKLSSVTAADTAVYYCARWDRVREGGRFSNAFDIWGQGTMVTVSS
VL: NIQLTQSPSSLSASVGDRVTITCRASQGISTYLAWYQQKPGLAPKLLIYGASTLQSGVPSKFSGFGSGRDFTLTISSLQPEDIATYYCQQLNTYPPTFGQGTKLEIKR
notes: also called P59395
B3: A44 (antibody, human IgG4, kappa, V domains shown)
VH: QVQLQESGPGLVKPSQTLSLTCTVSGGSISSGGYYWSWIRQHPGKGLEWIGYIYYSGSTYYNPSLKSRVTISVDTSKNQFSLKLSSVTAADTAVYYCARWGRGGSSWRFDIWGQGTMVTVSS
VL: AIQMTQSPSSLSASVGDRVTITCRASQALTYTLAWYQQKPGKAPRLLIHDASSLESGVPSRFSGSGSGTDFTLTITSLQPEDFATYYCQQFRSYPLTFGGGTKVEIKR
notes: also called P59373
B4: B201 (antibody, human IgG4, kappa, V domains shown)
VH: EVQLVESGGGLVQPGGSLRLSCAASGFTFSSYAMHWVRQAPGKGLEWVSAISGSGDSTYYADSVKGRFSISRDNSKNTLYLQMNSLRAEDTAVYYCAKGSRRSGFNLFDYWGQGTLVTVSS
VL: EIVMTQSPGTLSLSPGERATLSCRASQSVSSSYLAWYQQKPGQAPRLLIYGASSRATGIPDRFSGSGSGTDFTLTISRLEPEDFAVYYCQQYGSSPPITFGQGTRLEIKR
notes: also called P59398
B5: B20 (antibody, human IgG4, kappa, V domains shown)
VH: QVQLLESGPGLVKPSETLSLTCTVSGDSISNYFWSWIRQSPGKGLEWIGYIHYSGTVSYNPSLRSRVTISIDTSKNQFSLKLSSVTAADTAVYYCARRGRIAAAGTGYYYYGMDVWGQGTTVTVSS
VL: EIVMTQSPATLSLSPGERATLSCRASQSVSNYLAWYQQKPGQAPRLLIYGASSRATGIPDRFSGSGSGTDFTLTISRLEPEDFAVYYCQQYGSSLWTFGQGTKVEIKR
notes: also called P59383
B6: A378 (antibody, human IgG4, kappa, V domains shown)
VH: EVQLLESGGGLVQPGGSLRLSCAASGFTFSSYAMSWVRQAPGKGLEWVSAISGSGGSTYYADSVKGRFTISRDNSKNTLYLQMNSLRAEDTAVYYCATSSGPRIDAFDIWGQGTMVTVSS
VL: NIQMTQSPSSLTASVGDRITITCRASQGIRNSLAWYQQKPGTAPKLLVSAASKLQTGVPSRFSGSGSGTDYTLTISSLQTEDFATYYCQQYYGTPPTFGQGTKLEIKR
notes: also called P59380
B7: B109 (antibody, human IgG4, kappa, V domains shown)
VH: EVQLLESGGGLVKPGGSLRLSCAASGFTFSSYSMNWVRQAPGKGLEWVSSISSSSSYIYYADSVKGRFTISRDNAKNSLYLQMNSLRDGDTAIYYCVRRLWEAPGIGPFDVWGHGTMVTVSS
VL: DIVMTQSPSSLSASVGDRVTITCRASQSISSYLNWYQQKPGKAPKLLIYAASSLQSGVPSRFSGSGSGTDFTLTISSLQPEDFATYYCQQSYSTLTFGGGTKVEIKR
notes: also called P59392
B8: B24 (antibody, human IgG4, kappa, V domains shown)
VH: EVQLVETGGGLVKPGGSLRLSCAASGFTFSSYSMNWVRQAPGKGLEWVSSISSSSSYIYYADSVKGRFTISRDNAKNSLYLQMNSLRAEDTAVYYCARGRRRDFDYWGQGTLVTVSS
VL: DIQMTQSPSSLPASVGDRVTITCRASQGIGTFLAWYQQHLGKAPKLLISASSTVQRGVPSRFSGSGSGTEFTLTINSLQPEDFATYYCQQLNNYPRTFGQGTKVEIKR
notes: also called P59384
B9: A8 (antibody, human IgG4, kappa, V domains shown)
VH: QVQLVQSGAEVKKPGSSVKVSCKASGGTFSSYAISWVRQAPGQGLEWMGGIIPIFGTANYAQKFQGRVTMTRDTSTSTVYMELSSLRSEDTAVYYCARDSDFWSGYSSMDVWGQGTTVTVSS
VL: DIVMTQSPLSLPVTLGQPASISCRSSQSLVHSDGNTYLNWFQQRPGQSPRRLIYKVSNRDSGVPDRFSGSGSGTDFTLKISRVEAEDVGVYYCMQGTQWPDTFGQGTKLEIKR
notes: also called P59367
B10: A67 (antibody, human IgG4, kappa, V domains shown)
VH: QVQLVQSGGGVVQPGRSLRLPCAASGFTFSNYAMHWVRQAPGKGLEWVAVISYDGSKKYYADSVKGRFTISRDNSKNTLYLQVNSLRAEDTAVYYCATGYSSPWYGMDVWGQGTTVTVSS
VL: NIQMTQSPSSLSASVGDRITITCRASQSVNSYVNWYQQTPGQAPKLLIYAASSVHNGVPVRFSGSRSGTEFILTISSLQPEDFVTYFCQQSFTSPWTFGQGTKLEMKR
notes: also called P59376
B11: A26 (antibody, human IgG4, kappa, V domains shown)
VH: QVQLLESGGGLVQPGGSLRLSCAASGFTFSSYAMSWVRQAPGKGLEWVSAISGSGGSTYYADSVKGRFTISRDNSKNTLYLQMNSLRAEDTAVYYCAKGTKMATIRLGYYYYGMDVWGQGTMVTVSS
VL: DIVMTQSPLSLPVTPGEPASISCRSSQSLLHSNGRNYLDWYLQKPGQSPQLLIYLGSNRASGVSDRFSASGSGTDFTLQISRVEAEDVGIYYCMQALQTPWTFGQGTKVEVKR
notes: also called P59372
B12: B307 (antibody, human IgG4, kappa, V domains shown)
VH: QLQLQESGPGLVKPSQTLSLTCTVSGGSISSGGYYWSWIRQHPGKGLEWIGYIYYSGSTYYNPSLKSRVTISVDTSKNQFSLKLSSVTAADTAVYYCARMGRIAASNYYGMDVWGQGTTVTVSS
VL: DIQLTQSPSFLSASVGDRVTITCRASQGISSQLAWYQQEPGKAPKLLIYAASTLQSGVPSRFSGSGSGTEFTLTISSLQPEDFATYYCQQVNAYPLTFGPGTKVDIKR
notes: also called P59399
B13: A23 (antibody, human IgG4, kappa, V domains shown)
VH: QVQLVQSGAEVKKPGSSVKVSCKASGGTFSSYAISWVRQAPGQGLEWMGGIIPIFGTANYAQKFQGRVTITADESTSTAYMELSSLRSEDTAVYYCARGGGGRGMTSDWGQGTLVTVSS
VL: NIQLTQSPSSLSASVGDRVTITCRASQDISNYLAWFQQKPGKAPKSLIYAASSLQSGVPSRFSGSWSGTDFTLTISSLQPEDIATYYCQQYKRYPFIFGQGTKLEIKR
notes: also called P59371
B14: A21 (antibody, human IgG4, kappa, V domains shown)
VH: EVHLVESGPELVRPGASVTLSCKASGYTFTDYEMHWVKQTPVHGLEWIGAIDPETGGTAYNQKFKGKATLTADKSSSTAYMELRSLTSEDSAVYYCTTTYGNYWYFDVWGAGTLVTVSS
VL: DIQLTQSPSSVSASVGDRVTITCRASQNIENWLAWYQQKPGKAPKLLIYATSRLENDVPSRFSGSRSGTEFILTISSLQPEDFATYYCHQANGFPWTFGPGTKVDIKR
notes: also called P59369
B15: A382 (antibody, human IgG4, kappa, V domains shown)
VH: QVQLVQSGAEVKKPGASVKVSCKASGYTFTSYAMHWVRQAPGQRLEWMGWINAGNGNTKYSQKFQGRVTITRDTSASTAYMELSSLRSEDTAVYYCATSKSVWNFDYWGQGTLVTVSS
VL: EIVLTQSPATLSLSPGERATLSCRASQGISSYLAWYQQKPGQAPRLLIYDASNRATGIPARFSGSGSGTDFTLTISNLEPEDFAVYYCQQRKNWPLTFGGGSKVEIKR
notes: also called P59381
B16: B114 (antibody, human IgG4, kappa, V domains shown)
VH: EVQLLESGGGLVQPGGSLKLSCAASGFTFSGYAMHWVRQAPGKGLEWVAVISYDGSNKYYADSVKGRFTISRDNSKNTLYLQMNSLRAEDTAVYYCARGRGRGVFDYWGQGTLVTVSS
VL: B15 VL with A9G, G28S, I29V, S31K, A51V, N77S, K92R, N93S, S102T, K107R
notes: also called P59393
B17: B29 (antibody, human IgG4, kappa, V domains shown)
VH: QVQLVQSGAEVKKPGSSVKVSCKASGDTFSSFAISWVRQAPGQGLEWMGTIIPLFTTPNYAQKFQGRVTITADESTRTAYMELSSLRSEDTAVYYCARGPERIAAAGYYYYYGMDVWGQGTTVTVSS
VL: EIVMTQSPGTLSLSPGQRATLSCRASQSVSSSSLAWYQQKPGQAPRLLIHGASSRATGIPDRFSGSGSGTDFTLTISRLEPEDFAVYYCQQYGTSWTFGQGTKVEIKR
notes: also called P59385
B18: B67 (antibody, human IgG4, kappa, V domains shown)
VH: QITLKESGPGLVKPSGTLSLTCAVSGGSISSSNWWSWVRQPPGKGLEWIGEIYHSGSTNYNPSLKSRVTISVDKSKNQFSLKLSSVTAADTAVYYCARDDGWRYGSVYYYYMDVWGKGTTVTVSS
VL: DIQLTQSPSSLSASVGDRVTITCRASQSIDDHLNWYQQKPGKVPKLLISSASTLQSGAPSRFSGSGYGTDFTLTISSLQVEDFATYYCQQSYSPPQTFGQGTKVEIKR
notes: also called P59388
B19: B16 (antibody, human IgG4, kappa, V domains shown)
VH: QVQLVQSGGGLVQPGGSLRLSCAASGFTFSSYAMSWVRQAPGKGLEWVSAISGSGGSTYYADSVKGRFTISRDNPKNTLFLQMTSLRSEDTAMYYCARSYGNYFTYWGQGTLVTVSS
VL: EIVLTQSPATLSLSPGERATLSCRASQSVSSYLAWYQQKPGQAPRLLIYDASNRATGIPARFSGSGSGTDFTLTISSLEPEDFAVYYCQQRSNWPPELTFGGGTKVEIKR
notes: also called P59382
B20: B53 (antibody, human IgG4, kappa, V domains shown)
VH: EVQLVETGGGVVQPGRSLRLSCAASGFTFSSYAMHWVRQAPGKGLEWVAVISYDGSNKYYADSVKGRFTISRDNSKNTLYLQMNSLRAEDTAVYYCARNRYGATDYWGQGTLVTVSS
VL: NIQLTQSPSSLSASVGDRVTITCRASQGINSWLAWYQQKPGKAPKLLIYAASTLQSGVPSRFSGSGSGTDFTLTINSLQPEDFATYYCQQLNSFPFTFGPGTKVHIKR
notes: also called P59387
B21: B117 (antibody, human IgG4, kappa, V domains shown)
VH: EVQLLESGGGLVQPGGSLRLSCAASGFTFSSYSMNWVRQAPGKGLEWVSYISSSSSTIYYADSVKGRFTISRDNAKNSLYLQMNSLRDEDTAVYYCARDRTLGYWGQGTLVTVSS
VL: B20 VL with L11V, T22S, N30G, S31R, T53N, N76S, L91A, F96R, H105D
notes: also called P59394

Substitutions are numbered along the chain they refer to.

For this test, the target named is T1, CC1H, major antigenic region of PLA2R (human, UniProt Q13018 21-367).
T1 construct: Secreted from CHO-S cells, purified on Ni column; also called CCIh
As to the kind of experiment: indirect ELISA, CC1h coated at 2 ug/mL, anti-human IgG Fc HRP. As for the experimental part: 30 μL of CC1h (2 μg/mL, diluted with 1*PBS) was added to the reaction wells of the ELISA plate, and the plate was sealed and incubated at 4° C. overnight. The plate was washed with PBST for 3 times, and the liquid in the wells was discarded. 5% PBSM was added to block the ELISA plate at room temperature for 2 hours. The plate was washed with PBST for 3 times by adding 30 μL of Abs (diluted with 1*PBS) to each well of the ELISA plate, and the plate was incubated at room temperature for 60 min. The plate was washed with PBST for 3 times, 30 μL of anti-human IgG Fc HRP (diluted with 1% PBSM at a ratio of 1:8000) was added to each well, and incubated at room temperature for 60 min. TMB was added and the reaction was stopped with 2M blocking solution and the OD value was detected at 450 nm. Recombinant Ipilimumab (Sanyou Biopharmaceuticals Co., Ltd.) was used as a negative control. The test results were illustrated in Table 2 as well as FIG. 4 and FIG. 5.
B1 yielded a 50% effective concentration (EC50) of 7.71 ng/mL.

For B2, the EC50 was 8.09 ng/mL. This EC50 and that of the molecule before are within 1.5-fold of each other.

In turn, B3 returned an EC50 of 4.79 ng/mL.

B4: a half-maximal effect (EC50) was put at 8.88 ng/mL. Compared with the last molecule, the EC50 is about 1.9-fold higher.

With B5, it took 5.36 ng/mL to reach a half-maximal effect (EC50).

The molecule B6 registered an EC50 of 14.1 ng/mL.

Turning to B7, the EC50 amounted to 6.38 ng/mL.

Take B8: a half-maximal effect (EC50) was put at 7.03 ng/mL.

Take B9: the EC50 was 4.81 ng/mL.

B10 had an EC50 of 6.41 ng/mL.

Regarding B11, the EC50 was 16 ng/mL.

Turning to B12, the EC50 worked out at 5.74 ng/mL.

In the case of B13, the EC50 was found to be 27.6 ng/mL.

The molecule B14 yielded an EC50 of 8.49 ng/mL. This EC50 lies about 3.3-fold lower than the previous one.

Molecule B15 returned an EC50 of 13.2 ng/mL.

For B16, the EC50 turned out to be 6.52 ng/mL.

Molecule B17 showed an EC50 of 3.85 ng/mL.

Turning to B18, the EC50 was found to be 5.02 ng/mL.

Molecule B19 registered an EC50 of 6.67 ng/mL. The EC50 values of the last two molecules are within 1.5-fold of each other.

On to B20, for which the midpoint of the response, the EC50, lay at 7.67 ng/mL.

In the case of B21, the EC50 turned out to be 7.17 ng/mL. This EC50 and that of the molecule before are within 1.5-fold of each other.
